± gives the standard deviation of the averaged measurements.
Tested on: Saccharomyces cerevisiae
Assay: protein stability index of tFT-peptide fusion (C-terminal peptide) (PSI (0-1 scale)); higher = more stable (slower turnover)
Conditions: genetic background: wild type; temperature: 30 C
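Also: PSI is a weighted mean of sequencing reads over stability bins, variants kept only with over 10 reads, mCherry proximal and sfGFP distal, peptide attached via GGGS linker.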

| Sequence | protein stability index |
| --- | --- |
| PRPPPPLPPFPP | 0.6602 ± 0.0011 |
| PRPPPPPPPLPP | 0.692 ± 0.03 |
| PRPPPPRPPFST | 0.717 ± 0.01 |
| PRPPPPSPIPPL | 0.7265 ± 0.0018 |
| PRPPSPPADPAP | 0.744 ± 0.013 |
| PRPPYPRPPPPP | 0.725 ± 0.074 |
| PRPSFRPPPPLP | 0.722 ± 0.011 |
| PRPSPPPVSPRP | 0.74 ± 0.043 |
| PRRPLSTPTPLV | 0.666 ± 0.049 |
| PRRPPSSLWPYP | 0.669 ± 0.044 |
| PRSAPPRRPPTP | 0.753 ± 0.075 |
| PRSPPPLPPSSL | 0.705 ± 0.029 |
| PRSPPPPLLSPP | 0.692 ± 0.037 |
| PRSPPSPPPPPS | 0.641 ± 0.1 |
| PRSPSLPPLFSP | 0.718 ± 0.072 |
| PRSSHHPLPSPP | 0.676 ± 0.071 |
| PRSTLLPRSSSC | 0.654 ± 0.028 |
| PRSVLGFKMGRF | 0.715 ± 0.065 |
| PRTPAPAPTPRP | 0.682 ± 0.017 |
| PRTRLPPQLRLP | 0.694 ± 0.02 |
| PRYKQSSFAFKK | 0.669 ± 0.036 |
| PRYSLPTLLSSR | 0.678 ± 0.051 |
| PRYVQPQCLAQR | 0.6721 ± 0.0051 |
| PSAPPLSHPAPW | 0.675 ± 0.047 |
| PSAPRHLIPPPI | 0.715 ± 0.07 |
| PSAPTNPHARLA | 0.689 ± 0.051 |

| Sequence | protein stability index |
| --- | --- |
| PSEAPEAPLPRP | 0.731 ± 0.082 |
| PSELGAGNVMGG | 0.699 ± 0.027 |
| PSFPSSSCTSPI | 0.693 ± 0.1 |
| PSGICVLSPRYG | 0.7 ± 0.016 |
| PSGLRNAHRHRT | 0.719 ± 0.013 |
| PSGPKAPPHAGR | 0.6757 ± 0.0058 |
| PSHPLSLFLLFL | 0.58 ± 0.007 |
| PSIPRTSTRPTL | 0.706 ± 0.037 |
| PSIPRTTLLSCN | 0.607 ± 0.037 |
| PSLDCMSIEETT | 0.679 ± 0.017 |
| PSLGLSIPTPLP | 0.6849 ± 0.0046 |
| PSLLFILPSPLP | 0.689 ± 0.015 |
| PSLPFPPTPPPC | 0.686 ± 0.11 |
| PSLPHSRPRTPT | 0.707 ± 0.028 |
| PSLPPVPPPPRP | 0.71 ± 0.04 |
| PSLSSHPALLFI | 0.752 ± 0.038 |
| PSNPTPLTLLLF | 0.641 ± 0.017 |
| PSPAPHIPIFFR | 0.742 ± 0.079 |
| PSPCPPRPPPSP | 0.753 ± 0.1 |
| PSPDLRAPSSVR | 0.731 ± 0.024 |
| PSPDPCPLGRTA | 0.629 ± 0.067 |
| PSPFSPPPPSSP | 0.736 ± 0.028 |
| PSPGPPATRPAL | 0.719 ± 0.0036 |
| PSPICFYPLGAS | 0.71 ± 0.034 |
| PSPIHSRQTQWF | 0.707 ± 0.015 |
| PSPLPPPPLLPP | 0.775 ± 0.28 |

| Sequence | protein stability index |
| --- | --- |
| PSPLPRPPPLPL | 0.656 ± 0.039 |
| PSPLRDLRSTAL | 0.663 ± 0.031 |
| PSPPFPPPPPPE | 0.717 ± 0.047 |
| PSPPLPPPAPLL | 0.718 ± 0.056 |
| PSPPLPPPPSGP | 0.677 ± 0.067 |
| PSPPLPPPYPLP | 0.716 ± 0.084 |
| PSPPLPPRPPTL | 0.743 ± 0.013 |
| PSPPPLPPLPPF | 0.682 ± 0.029 |
| PSPPPPAPRPPP | 0.657 ± 0.03 |
| PSPPPPGPPLAL | 0.632 ± 0.033 |
| PSPPPPLAPCLP | 0.666 ± 0.038 |
| PSPPPPPPPSVR | 0.69 ± 0.042 |
| PSPPPPPPTPAS | 0.655 ± 0.024 |
| PSPPPPTPPVRL | 0.722 ± 0.11 |
| PSPPPVLLPFFT | 0.711 ± 0.08 |
| PSPPSPPPPPPT | 0.749 ± 0.06 |
| PSPPTALCPPPL | 0.68 ± 0.15 |
| PSPPVPRPPPSP | 0.647 ± 0.018 |
| PSPPVRPPLPPP | 0.652 ± 0.15 |
| PSPRPPSPLFPP | 0.685 ± 0.073 |
| PSPRSGPPLASP | 0.6896 ± 0.0012 |
| PSPRSPPPSPPS | 0.747 ± 0.12 |
| PSPSFPPPPLSR | 0.721 ± 0.073 |
| PSPSLPGRSASP | 0.727 ± 0.0081 |
| PSPSPPPPPPGL | 0.681 ± 0.064 |
| PSPTPTMPPPPP | 0.71 ± 0.01 |

| Sequence | protein stability index |
| --- | --- |
| PSRPPGHPAPKP | 0.761 ± 0.063 |
| PSRSLSPSPPFS | 0.691 ± 0.066 |
| PSSAHLPPPPPP | 0.673 ± 0.014 |
| PSSAPPGSPGHL | 0.701 ± 0.019 |
| PSSAQKNPNPNT | 0.701 ± 0.073 |
| PSSLFPPPPSVL | 0.685 ± 0.029 |
| PSSLPPLSAPSS | 0.6829 ± 0.0035 |
| PSSPPCPPPLPS | 0.624 ± 0.02 |
| PSSPPPPPPPPH | 0.71 ± 0.0097 |
| PSSPPSLPSPLP | 0.691 ± 0.065 |
| PSSPPSSTSPPL | 0.633 ± 0.16 |
| PSSPSPPYPFAP | 0.684 ± 0.016 |
| PSSRSASSSSPA | 0.705 ± 0.043 |
| PSSSPPLLPPPA | 0.638 ± 0.026 |
| PSTLQPLQRSPR | 0.617 ± 0.0014 |
| PSVLPSSCTPSP | 0.663 ± 0.03 |
| PSWLPLPLLFLV | 0.416 ± 0.18 |
| PSYTSYFVGLST | 0.48 ± 0.11 |
| PTDVVCVSGHGS | 0.748 ± 0.076 |
| PTFPPPPRTPPS | 0.719 ± 0.017 |
| PTFRSRPFPPHP | 0.703 ± 0.032 |
| PTGCPPGVTPCL | 0.681 ± 0.022 |
| PTLGDPSVLLLL | 0.69 ± 0.022 |

From the supplement of paper PMC10724198
